Source: patent US20250381223A1 (UTC THERAPEUTICS SHANGHAI, published 2025)

T1: CD123-Fc recombinant protein (human, UniProt P26951 19-305)
T1 construct: construct not described; not shown: Fc part
T1 sequence (looked up): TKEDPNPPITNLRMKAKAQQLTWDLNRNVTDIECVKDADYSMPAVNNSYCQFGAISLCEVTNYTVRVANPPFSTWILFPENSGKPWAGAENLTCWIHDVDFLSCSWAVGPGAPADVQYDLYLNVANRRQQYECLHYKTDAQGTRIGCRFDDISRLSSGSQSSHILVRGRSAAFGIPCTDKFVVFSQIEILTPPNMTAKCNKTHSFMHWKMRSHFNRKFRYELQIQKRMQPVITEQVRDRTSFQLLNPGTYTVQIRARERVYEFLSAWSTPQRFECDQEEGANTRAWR

B1: anti-CD123 scFv-C19 (scFv)
scFv: DIRMTQSPSSLSASVGDRVTITCRASQDIRHDLGWYQQKPGKAPSLLMYATSTLQSGVPSRFSGSGSGTHFTLTISSLKPEDSATYYCLQDGDYPLTFGGGTKLEIKGGGGSGGGGSGGGGSQVQLVQSGGGVVQPGRSLRLSCAASGFTFSSYGMHWVRQAPGKGLEWVAVISYDGSNKYYADSVKGRFTISRDNSKNTLYLQMNSLRAEDTAVYYCAKDPSLIQYYYYGMDVWGQGTMVTVSS
notes: On mRNA-electroporated T cells as CAR
B2: anti-CD123 scFv-C26 (scFv)
scFv: QSVLTQPPSASGTPGQRVTISCSGSRSNIGSNTVSWYQQFPGTAPKLLIYLNNQRPSGVPDRFSGSKSGTSASLAISGLQSEDEAEYYCATWDDDLNGVFGGGTKLTVLGGGGSGGGGSGGGGSEVQLVESGGGLVQPGGSLRLSCAASGFTLSNFEMNWVRQAPGRGLEWVSYISATTSATSYADSVKGRFTISRDNAKNSLYLQMNSLRAEDTAVYYCARVRDGYNFGYYYYYMDVWGKGTTVTVSS
notes: as for B1
B3: anti-CD123 scFv-C30 (scFv)
scFv: AIRLTQSPSSLSASVGDRVTITCQASQNINNYLNWYQQKSGKAPKLLIYDASNLEAGVPSRFSGSASGTDFTFTISSLQPEDIATYYCQQNDNLPLTFGQGTRLEIKGGGGSGGGGSGGGGSEVQLVESGGGVVRPGGSLRLSCAASGFTFGDYGMSWVRQAPGKGLEWVSGINWNGGSTGYADSVKGRFTISRDNAKNSLYLQMNSLRAEDTALYYCARDRAPDYGDYLQVGTTDYWGQGTLVTVSS
notes: as for B1
B4: anti-CD123 scFv-C33 (scFv)
scFv: DIRLTQSPSSLSASVGDTITITCRASQDISSWIAWYQQKPGTAPRLLIYAASSLQSGVPSRFSGSGSGTDFTLTINSLHPEDFATYYCQQGSTFPLAFGGGTKVEIKGGGGSGGGGSGGGGSQVQLVQSGAEVKKPGSSVKVSCKASGGTFSSYAISWVRQAPGQGLEWMGGIIPIFGTANYAQKFQGRVTITADESTSTAYMELSSLRSEDTAVYYCARGLDNWNDVGWFDPWGQGTLVTVSS
notes: as for B1
B5: anti-CD123 scFv-C34 (scFv)
scFv: QSALTQPPSASGSPGQSVTISCTGTRSDVGAYNYVSWYQHHPGKAPKLMLYDVSKRPSGVSDRFSGSKSGNTASLTVSGLQSEDEANYYCSSYAGSGKYVFGSGTELTVLGGGGSGGGGSGGGGSEVHLVESGGGLVKPGGSLRLSCAASGFTFSDTWMSWVRQAPGKGLEWVGRIKSKTDGGTTNYAAPVKGRFTISRDDSKTTLFLQMNSLKTEDTAVYYCTGGDYPLFAYWGQGALVTVSS
notes: as for B1
B6: anti-CD123 scFv-C32 (scFv)
scFv: QSVVTQPPSASGTPGQRVTISCSGSSSNIEGNTVSWYQQFPGAAPKLLIYSNSYRASGVPDRFSGSKSGTSASLAISELQSEDEADYYCSAWDDSLNGPVFGGGTKVTVLGGGGSGGGGSGGGGSEVQLVESGGGLVQPGGSLRLSCAASGFTFTSYAMNWVRQAPGKGLEWVSDISSSSSYIYYADSVKGRFTISRDNAKNSLYLQMNSLRAEDTAVYYCARDLYSGYDYGYYYGMDVWGQGTTVTVSS
notes: as for B1
B7: anti-CD123 scFv-C29 (scFv)
scFv: QPVLTQPPSASGTPGQRVTISCSGSSSNIGSNYVYWYQQLPGTAPKLLIYRNNQRPSGVPDRFSGSKSGTSASLAISGLRSEDEADYYCAAWDDSLSGYVFGTGTKVTVLGGGGSGGGGSGGGGSEVHLVESGGGLVQPGRSLRLSCTASGFTFGDYAMSWVRQAPGKGLEWVGFIRSKAYGGTTEYAASVKGRFTISRDDSKSIAYLQMNSLKTEDTAVYYCTRDIGYYGSGSYSPFDYWGQGTLVTVSS
notes: as for B1
B8: anti-CD123 scFv-C24 (scFv)
scFv: DIQMTQSPSSLSASVGDRVTITCRASQSISSYLNWYQQKPGKAPKLLIHAASSLQSGVPSKFSGSGSGTDFTLTISSLQPEDFATYYCLQYKTYPYTFGPGTKVEIKGGGGSGGGGSGGGGSQVQLVQSGAEVKKPGSSVKVSCKASGGTFSSYAISWVRQAPGQGLEWMGGIIPIFGTANYAQKFQGRVTITADESTSTAYMELSSLRSEDTAVYYCARDSPSGSTNYYYYYMDVWGKGTTVTVSS
notes: as for B1
B9: anti-CD123 scFv-C27 (scFv)
scFv: EIVLTQSPGTVSLSPGERATLSCRASQRVSATYLAWYQQKPGQAPRLLMYGGSRRATGIPDRFSGSGSGTDFTLTIRRLEPEDSAVYYCQQYGSSPLTFGGGTKLEIKGGGGSGGGGSGGGGSQVQLVQSGSELKKPGASVKVSCKASGYTFTSYGISWVRQAPGQGLEWMGWISAYNGNTNYAQKLQGRVTMTTDTSTSTAYMELRSLRSDDTAVYYCARDPYDDYGGNSRDEEDAFDIWGQGTTVTVSS
notes: as for B1
B10: anti-CD123 scFv-C21 (scFv)
scFv: QSVLTQPPSASGTPGQRVTISCSGSSSNVGGNPVYWYRQVPTAAPKLLVYGHNQRPPRDPDRFSGSKSGTSASLAISGLRSEDEADYYCAAWDDSLSGWVFGGGTELTVLGGGGSGGGGSGGGGSEVQLVESGGGLVQPGRSLRLSCAASGFTFDDYAMHWVRQAPGKGLEWVSGISWNSGSIGYADSVKGRFTISRDNAKNSLYLQMNSLRAEDTALYYCAKGRYVDIVATINDAFDIWGQGTMVTVSS
notes: as for B1
B11: anti-CD123 scFv-C23 (scFv)
scFv: DILMTQSPSSLSASVGDRVTITCQASQDISNYLNWYQQKPGKAPKLLIYDASNLETGVPSRFSGSGSGTGFSFTISSLQPEDFATYYCQQYGNLPLTFGGGTKLEIKGGGGSGGGGSGGGGSQVQLVQSGAEVKKPGASVKVSCKASGYTFTSYGISWVRQAPGQGLEWMGWISAYNGNTNYAQKLQGRVTMTTDTSTSTAYMELRSLRSDDTAVYYCARDRIAAAEVYYYYGMDVWGQGTTVTVSS
notes: as for B1

target: T1, CD123-Fc recombinant protein; assay: flow cytometry of T cells electroporated with CAR mRNA, stained with CD123-Fc + PE-anti-hIgG-Fc; Mock 0.36
Method: The CD123 CAR mRNAs obtained in Example 35 above were each introduced into T cells by electroporation according to the following procedures: T cells were collected, washed with the Opti-MEM medium, and resuspended at 1×10e⁷/mL with the Opti-MEM medium; 10 μg of RNA and 100 μL of T cells were aliquoted, mixed well, and electroporated under the following parameters (BTX machine): 500 V, 0.7 ms; the cells were then transferred to a pre-warmed medium and cultured at 37° C. The binding of CD123 CART cells to the CD123-Fc recombinant protein was detected by FACS staining. […] Empty vector (Mock) was a control T cell without CAR molecule. A549 tumor cells were electroporated with different amounts of CD123 mRNA. The electroporation procedure was the same as described above, and only the parameters were changed, with the parameters 300 V, 0.5 ms used. CD123 expression in A549 tumor cells was detected by FACS staining of isotype or anti-CD123 antibodies and A549 cells electroporated with different amounts of CD123 mRNA. […] The cytotoxicity of CD123 CART cells against tumor cells was detected in an in vitro cytotoxicity assay. Tumor cells expressing EGFP or EGFP-A549 cells electroporated with different amounts of tumor antigen were seeded at 3000 cells/100 μL/well into a flat-bottom 96-well plate; CART cells were diluted to a proper concentration and seeded to the 100 μL/well tumor cells according to different E/T ratios (e.g., 10:1, 3:1, or 1:1), and the co-culture plate was placed into the IncuCyte S3 machine and scanning parameters were set. After scanning for 3 days, the total green object integrated intensity (GCU×μm²/well) was analyzed to calculate the killing efficiency.

| percent of cells in the CD123-Fc positive gate [%] | Binder |
| --- | --- |
| 65.4 | B1 |
| 73.4 | B2 |
| 80.7 | B3 |
| 58.5 | B4 |
| 90.3 | B5 |
| 72.1 | B6 |
| 21.6 | B7 |
| 79.5 | B8 |
| 47.8 | B9 |
| 78.6 | B10 |
| 81.8 | B11 |
